{
  "source": "patent CN116284371A",
  "about": "(SUZHOU FANGKE BIOTECHNOLOGY CO LTD; SUZHOU INST OF SYSTEMS …, dated 2023)",
  "binders": {"B1": {"name": "76F-MDA5-R2P1-G5抗体 (antibody, human IgG1, kappa, V domains shown)", "VH": "QVQLVESGGGVVQPGRSLRLSCAASGFTFSSYAMHWVRQAPGKGLEWVAVISYDGSNKYYADSVKGRFTISRDNSKNTLYLQMNSLRAEDTAVYYCARHRRYAFDIWGQGTTVTVSS", "VL": "QAVLTQPASVSGSPGQSITISCTGTSSDVGGYNYVSWYQQHPGKAPKLMIYDVSKRPSGVSNRFSGSKSGNTASLTISGLQAEDEADYYCSSYVVSYTWVFGGGTKVTVLR", "notes": "The printed heavy and light chain entries appear to start with a leader peptide"}},
  "target": "T1, 重组蛋白MDA5 (MDA5抗原蛋白) (Homo sapiens (Human), UniProt Q9BYX4 1-1025)",
  "T1 construct": "Recombinant MDA5 from a synthetic gene in pFastBac1 (EcoRI/XbaI); also called MDA5蛋白",
  "T1 sequence": "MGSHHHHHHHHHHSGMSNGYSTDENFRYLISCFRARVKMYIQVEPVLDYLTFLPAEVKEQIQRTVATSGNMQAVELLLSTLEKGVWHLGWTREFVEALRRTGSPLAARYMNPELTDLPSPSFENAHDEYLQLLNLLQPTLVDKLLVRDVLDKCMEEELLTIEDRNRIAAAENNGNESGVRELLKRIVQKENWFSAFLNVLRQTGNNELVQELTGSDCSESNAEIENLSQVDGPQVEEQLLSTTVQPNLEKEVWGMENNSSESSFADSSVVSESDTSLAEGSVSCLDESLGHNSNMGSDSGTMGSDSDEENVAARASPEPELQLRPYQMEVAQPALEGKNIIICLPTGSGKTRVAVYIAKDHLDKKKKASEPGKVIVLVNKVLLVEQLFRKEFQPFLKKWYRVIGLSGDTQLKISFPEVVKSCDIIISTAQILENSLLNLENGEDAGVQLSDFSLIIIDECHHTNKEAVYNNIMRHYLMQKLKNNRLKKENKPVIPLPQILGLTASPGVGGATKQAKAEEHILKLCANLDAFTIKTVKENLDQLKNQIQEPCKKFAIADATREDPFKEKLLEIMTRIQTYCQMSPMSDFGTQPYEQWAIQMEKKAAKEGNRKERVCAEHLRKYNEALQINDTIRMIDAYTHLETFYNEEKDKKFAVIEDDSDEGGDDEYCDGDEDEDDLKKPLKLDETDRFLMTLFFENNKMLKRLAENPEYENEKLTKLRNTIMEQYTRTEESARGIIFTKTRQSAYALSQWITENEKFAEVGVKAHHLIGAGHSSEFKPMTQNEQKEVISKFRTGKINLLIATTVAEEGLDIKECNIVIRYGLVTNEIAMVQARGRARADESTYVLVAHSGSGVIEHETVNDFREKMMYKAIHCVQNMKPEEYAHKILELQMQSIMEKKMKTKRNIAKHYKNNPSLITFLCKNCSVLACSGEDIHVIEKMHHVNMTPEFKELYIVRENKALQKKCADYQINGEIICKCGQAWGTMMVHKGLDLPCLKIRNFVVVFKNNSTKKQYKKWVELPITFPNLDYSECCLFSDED",
  "experiment": "ELISA, MDA5 coated 4 ug/mL, antibody dilution series, anti-human IgG-HRP",
  "data": [
    {"binder": "B1", "values": [
      {"measurement": "binding result", "result": "binds"}
    ]}
  ]
}
